The values below come from PMC6021111, “Murine leukemia virus p12 tethers the capsid-containing pre-integration complex to chromatin by binding directly to host nucleosomes in mitosis” (PLoS Pathogens, 2018).

The chains are these.
B1: unnamed (parent)
chain 1: PALTPSLGAKPKPQVLSDSGGPLIDLLTEDPPPYRDPRPPPSDRDGNGGEATPAGEAPDPSPMASRLRGRREPPVADSTTSQAF
chain 2: MAQISSNSGFKECPSSHPEPTRAKDVDKEEALQMEAEALAKLQKDRQVTDNQRGFELSSSTRKKAQVYNKQDYDLMVFPESDSQKRALDIDVEKLTQAELEKLLLDDSFETKKTPVLPVTPILSPSFSAQLYFRPTIQRGQWPPGLPGPSTYALPSIYPSTYSKQAAFQNGFNPRMPTFPSTEPIYLSLPGQSPYFSYPLTPATPFHPQGSLPIYRPVVSTDMAKLFDKIASTSEFLKNGKARTDLEITDSKVSNLQVSPKSEDISKFDWLDLDPLSKPKVDNVEVLDHEEEKNVSSLLAKDPWDAVLLEERSTANCHLERKVNGKSLSVATVTRSQSLNIRTTQLAKAQGHISQKDPNGTSSLPTGSSLLQEVEVQNEEMAAFCRSITKLKTKFPYTNHRTNPGYLLSPVTAQRNICGENASVKVSIDIEGFQLPVTFTCDVSSTVEIIIMQALCWVHDDLNQVDVGSYVLKVCGQEEVLQNNHCLGSHEHIQNCRKWDTEIRLQLLTFSAMCQNLARTAEDDETPVDLNKHLYQIEKPCKEAMTRHPVEELLDSYHNQVELALQIENQHRAVDQVIKAVRKICSALDGVETLAITESVKKLKRAVNLPRSKTADVTSLFGGEDTSRSSTRGSLNPENPVQVSINQLTAAIYDLLRLHANSGRSPTDCAQSSKSVKEAWTTTEQLQFTIFAAHGISSNWVSNYEKYYLICSLSHNGKDLFKPIQSKKVGTYKNFFYLIKWDELIIFPIQISQLPLESVLHLTLFGILNQSSGSSPDSNKQRKGPEALGKVSLPLFDFKRFLTCGTKLLYLWTSSHTNSVPGTVTKKGYVMERIVLQVDFPSPAFDIIYTTPQVDRSIIQQHNLETLENDIKGKLLDILHKDSSLGLSKEDKAFLWEKRYYCFKHPNCLPKILASAPNWKWVNLAKTYSLLHQWPALYPLIALELLDSKFADQEVRSLAVTWIEAISDDELTDLLPQFVQALKYEIYLNSSLVQFLLSRALGNIQIAHNLYWLLKDALHDVQFSTRYEHVLGALLSVGGKRLREELLKQTKLVQLLGGVAEKVRQASGSARQVVLQRSMERVQSFFQKNKCRLPLKPSLVAKELNIKSCSFFSSNAVPLKVTMVNADPMGEEINVMFKVGEDLRQDMLALQMIKIMDKIWLKEGLDLRMVIFKCLSTGRDRGMVELVPASDTLRKIQVEYGVTGSFKDKPLAEWLRKYNPSEEEYEKASENFIYSCAGCCVATYVLGICDRHNDNIMLRSTGHMFHIDFGKFLGHAQMFGSFKRDRAPFVLTSDMAYVINGGEKPTIRFQLFVDLCCQAYNLIRKQTNLFLNLLSLMIPSGLPELTSIQDLKYVRDALQPQTTDAEATIFFTRLIESSLGSIATKFNFFIHNLAQLRFSGLPSNDEPILSFSPKTYSFRQDGRIKEVSVFTYHKKYNPDKHYIYVVRILREGQIEPSFVFRTFDEFQELHNKLSIIFPLWKLPGFPNRMVLGRTHIKDVAAKRKIELNSYLQSLMNASTDVAECDLVCTFFHPLLRDEKAEGIARSADAGSFSPTPGQIGGAVKLSISYRNGTLFIMVMHIKDLVTEDGADPNPYVKTYLLPDNHKTSKRKTKISRKTRNPTFNEMLVYSGYSKETLRQRELQLSVLSAESLRENFFLGGVTLPLKDFNLSKETVKWYQLTAATYL
B2: unnamed (parent)
chain 1: B1 chain 1
chain 2: MAQILPIRFQEHLQLQNLGINPANIGFSTLTMESDKFICIREKVGEQAQVVIIDMNDPSNPIRRPISADSAIMNPASKVIALKAGKTLQIFNIEMKSKMKAHTMTDDVTFWKWISLNTVALVTDNAVYHWSMEGESQPVKMFDRHSSLAGCQIINYRTDAKQKWLLLTGISAQQNRVVGAMQLYSVDRKVSQPIEGHAASFAQFKMEGNAEESTLFCFAVRGQAGGKLHIIEVGTPPTGNQPFPKKAVDVFFPPEAQNDFPVAMQISEKHDVVFLITKYGYIHLYDLETGTCIYMNRISGETIFVTAPHEATAGIIGVNRKGQVLSVCVEEENIIPYITNVLQNPDLALRMAVRNNLAGAEELFARKFNALFAQGNYSEAAKVAANAPKGILRTPDTIRRFQSVPAQPGQTSPLLQYFGILLDQGQLNKYESLELCRPVLQQGRKQLLEKWLKEDKLECSEELGDLVKSVDPTLALSVYLRANVPNKVIQCFAETGQVQKIVLYAKKVGYTPDWIFLLRNVMRISPDQGQQFAQMLVQDEEPLADITQIVDVFMEYNLIQQCTAFLLDALKNNRPSEGPLQTRLLEMNLMHAPQVADAILGNQMFTHYDRAHIAQLCEKAGLLQRALEHFTDLYDIKRAVVHTHLLNPEWLVNYFGSLSVEDSLECLRAMLSANIRQNLQICVQVASKYHEQLSTQSLIELFESFKSFEGLFYFLGSIVNFSQDPDVHFKYIQAACKTGQIKEVERICRESNCYDPERVKNFLKEAKLTDQLPLIIVCDRFDFVHDLVLYLYRNNLQKYIEIYVQKVNPSRLPVVIGGLLDVDCSEDVIKNLILVVRGQFSTDELVAEVEKRNRLKLLLPWLEARIHEGCEEPATHNALAKIYIDSNNNPERFLRENPYYDSRVVGKYCEKRDPHLACVAYERGQCDLELINVCNENSLFKSLSRYLVRRKDPELWGSVLLESNPYRRPLIDQVVQTALSETQDPEEVSVTVKAFMTADLPNELIELLEKIVLDNSVFSEHRNLQNLLILTAIKADRTRVMEYINRLDNYDAPDIANIAISNELFEEAFAIFRKFDVNTSAVQVLIEHIGNLDRAYEFAERCNEPAVWSQLAKAQLQKGMVKEAIDSYIKADDPSSYMEVVQAANTSGNWEELVKYLQMARKKARESYVETELIFALAKTNRLAELEEFINGPNNAHIQQVGDRCYDEKMYDAAKLLYNNVSNFGRLASTLVHLGEYQAAVDGARKANSTRTWKEVCFACVDGKEFRLAQMCGLHIVVHADELEELINYYQDRGYFEELITMLEAALGLERAHMGMFTELAILYSKFKPQKMREHLELFWSRVNIPKVLRAAEQAHLWAELVFLYDKYEEYDNAIITMMNHPTDAWKEGQFKDIITKVANVELYYRAIQFYLEFKPLLLNDLLMVLSPRLDHTRAVNYFSKVKQLPLVKPYLRSVQNHNNKSVNESLNNLFITEEDYQALRTSIDAYDNFDNISLAQRLEKHELIEFRRIAAYLFKGNNRWKQSVELCKKDSLYKDAMQYASESKDTELAEELLQWFLQEEKRECFGACLFTCYDLLRPDVVLETAWRHNIMDFAMPYFIQVMKEYLTKVDKLDASESLRKEEEQATETQPIVYGQPQLMLTAGPSVAVPPQAPFGYGYTAPPYGQPQPGFGYSM
B3: unnamed (parent)
chain 1: B1 chain 1
chain 2: MLNMWKVRELVDKATNVVMNYSEIESKVREATNDDPWGPSGQLMGEIAKATFMYEQFPELMNMLWSRMLKDNKKNWRRVYKSLLLLAYLIRNGSERVVTSAREHIYDLRSLENYHFVDEHGKDQGINIRQKVKELVEFAQDDDRLREERKKAKKNKDKYVGVSSDSVGGFRYSERYDPEPKSKWDEEWDKNKSAFPFSDKLGELSDKIGSTIDDTISKFRRKDREDSPERCSDSDEEKKARRGRSPKGEFKDEEETVTTKHIHITQATETTTTRHKRTANPSKTIDLGAAAHYTGDKASPDQNASTHTPQSSVKTSVPSSKSSGDLVDLFDGTSQSTGGSADLFGGFADFGSAAASGSFPSQVTATSGNGDFGDWSAFNQAPSGPVASSGEFFGSASQPAVELVSGSQSALGPPPAASNSSDLFDLMGSSQATMTSSQSMNFSMMSTNTVGLGLPMSRSQNTDMVQKSVSKTLPSTWSDPSVNISLDNLLPGMQPSKPQQPSLNTMIQQQNMQQPMNVMTQSFGAVNLSSPSNMLPVRPQTNALIGGPMPMSMPNVMTGTMGMAPLGNTPMMNQSMMGMNMNIGMSAAGMGLTGTMGMGMPNIAMTSGTVQPKQDAFANFANFSK
B4: unnamed (parent)
chain 1: B1 chain 1
chain 2: MAELDPFGAPAGAPGGPALGNGVAGAGEEDPAAAFLAQQESEIAGIENDEAFAILDGGAPGPQPHGEPPGGPDAVDGVMNGEYYQESNGPTDSYAAISQVDRLQSEPESIRKWREEQMERLEALDANSRKQEAEWKEKAIKELEEWYARQDEQLQKTKANNRVADEAFYKQPFADVIGYVTNINHPCYSLEQAAEEAFVNDIDESSPGTEWERVARLCDFNPKSSKQAKDVSRMRSVLISLKQAPLVH

In the first assay the parent is B1. Description: SILAC-MS of GST pull-down. As to conditions: with partner chain of the complex shown; mitotic 293T cell lysates; replicate R1.
chain 1 S65A R66A L67A R68A G69A: the screen value (SDs from the mean) amounted to 1.4.

The assay is the same for the next values; noted with them: with partner chain of the complex shown; mitotic 293T cell lysates; replicate R2.
Consider chain 1 S65A R66A L67A R68A G69A, for which the screen value (SDs from the mean) came to 1.4.

The variants in the next assay derive from B2. Description: SILAC-MS of GST pull-down. As to conditions: with partner chain of the complex shown; mitotic 293T cell lysates; replicate R1.
chain 1 S65A R66A L67A R68A G69A: the screen value (SDs from the mean) turned out to be 1.

Still in this assay, the particulars now being: with partner chain of the complex shown; mitotic 293T cell lysates; replicate R2.
Turning to chain 1 S65A R66A L67A R68A G69A, the screen value (SDs from the mean) was determined as 2.3.

In the next assay the parent is B3. The experiment in a line: SILAC-MS of GST pull-down. The following applies: with partner chain of the complex shown; mitotic 293T cell lysates; replicate R1.
With chain 1 S65A R66A L67A R68A G69A, the screen value (SDs from the mean) was found to be 1.4.

Still in this assay, the particulars now being: with partner chain of the complex shown; mitotic 293T cell lysates; replicate R2.
Regarding chain 1 S65A R66A L67A R68A G69A, the screen value (SDs from the mean) stood at 3.3.

The variants in a further assay derive from B4. The experiment in a line: SILAC-MS of GST pull-down. The following applies: with partner chain of the complex shown; mitotic 293T cell lysates; replicate R2.
Consider chain 1 S65A R66A L67A R68A G69A, for which the screen value (SDs from the mean) was 1.4.
